Laboratory results reported in US20240336661A1, “PEPTIDES DERIVED FROM RUMINOCOCCUS TORQUES” (University of Copenhagen, priority 2021, published 2024).

B1: RUCILP2: 87 amino acid irisin-like polypeptide cleaved from the Ruminococcus torques FNDC5-like protein RUMTOR_00181; recombinant, 6-His-tagged from E. coli (protein)
chain: APVDVKVSEITETSAKASWKNAADGKEAAGYNVYVDGVKLNKELLTEASCGLTNLKAETTYFVEVTAVDAAGNESVKSEKVTFKTLK
modifications: 6-His tag; Ruminococcus torques
notes: 87 amino acid irisin-like polypeptide cleaved from the Ruminococcus torques FNDC5-like protein RUMTOR_00181; recombinant, 6-His-tagged from E. coli
B2: RUCILP1: 88 amino acid FNIII domain polypeptide of RUMTOR_00181 from Ruminococcus torques (protein)
chain: APVDVKVSEVTETSAKVSWKNAADGKEAAGYNVYVDGTKVNEELIAETTYNVSSLKDGTTYSVEVTAVDAAGEESAKSEKVEFTTVKK
modifications: Ruminococcus torques
notes: 88 amino acid FNIII domain polypeptide of RUMTOR_00181 from Ruminococcus torques

Tests used:
[1] = tested on: subcutaneous white adipose tissue (SWAT) and liver; experiment: Intraperitoneal RUCILP1 or RUCILP2 for 7 days in mice, gene expression in SWAT and liver; format: in vivo, mouse; settings: 1 mg/kg i.p.
Protocol: FIG. 46. Effects of RUCILP1 and RUCILP2 on gene expression in vivo. Recombinant RUCILPs were daily injected into peritoneum of 8-week-old wild type C57BL/6N mice at a concentration of 1 mg/kg for one week. The mRNA levels of indicated genes in subcutaneous white adipose tissue (SWAT) and liver were analyzed by qRT-PCR. n=6 animals per group. * indicates p<0.05 using one-way ANOVA followed by Dunnett post hoc correction. Data are expressed as mean±SEM.
For the RUCILPs intervention study, male mice (n=6 per group, 8 weeks of age) fed with standard chow diet were treated daily with an in intraperitoneal injection of 1 mg/kg recombinant RUCILP1, RUCILP2, or saline, respectively, for a week. All animals were then sacrificed and subcutaneous fat pads and liver were collected. The mRNA levels of indicated genes in subcutaneous fat and liver were analyzed by qRT-PCR as described in standard protocol for gene expression analysis.
(§1) Total RNA from cells or tissues was extracted according to the instructions provided by manufacturer of RNeasy mini kit (Qiagen) using QIAzol lysis reagent (Qiagen), followed by measurements of RNA purities and concentrations by NanoDrop 2000 spectrophotometer (Thermo Scientific). A total of 1 μg of RNA was used for the reverse transcription to cDNA using the iScript™ Select cDNA Synthesis Kit (Bio-Rad Laboratories). The samples were subjected to real-time PCR using the LC480 system (Roche Diagnostics) after premixing with Precision®PLUS Master Mix (Primer Design). For each indicated gene, samples were run in duplicate in a 384-well plate and ΔΔCt method was used for quantifying the expressions after normalization to the housekeeping Rpl36 or GAPDH gene.

mouse 3T3-L1 fibroblasts = experiment: Gene expression in 3T3-L1 fibroblasts (q-PCR); format: cell-based; settings: dose-response
Protocol: 3T3-L1 cells (a murine fibroblast cell line) were split onto 12-well plates and grown to confluence before inducing differentiation by treatment with 86 nM insulin, 0.1 μM dexamethasone, and 250 μM methyl isobutylxanthine. Two days after induction, cells were switched to an inducing medium in the presence of recombinant RUCILPs, or commercial recombinant irisin (Sigma, #SRP8039-10UG and Phoenix pharmaceuticals, #067-29A), or phosphate buffered saline (PBS) for two days. Subsequently, cells were maintained in 86 nM insulin in the presence of indicated concentrations of recombinant RUCILPs, 21-AABP1, commercial recombinant irisin, or PBS for four days with medium change every other day for 6 days. Cells were then harvested for q-PCR analysis as described in standard protocol for gene expression analysis.
as §1
Firstly, we tested the dose-response effects of RUCILPs on gene expression in mouse fibroblasts (3T3-L1), mouse […] (MLO-Y4), and mouse myoblasts (C2C12). To estimate effect on adipocyte browning, we measured expression of Ucp1, Prdm16, Pgc1a, Dio2 and Cox2, and expression of AdipoQ was measured as a marker of white adipocytes. As a marker of bone formation, we measured expression of Sclerostin; and markers of myotube formation included expression of Heyl, Sox3, and Stat3.

[2] = tested on: MLO-Y4 (murine long bone osteocyte-Y4) cell line; experiment: Sclerostin mRNA expression in MLO-Y4 cells; format: cell-based, mouse; settings: for sclerostin expression levels: 150 nM, 24 h
Protocol: FIG. 11. […] The cells were incubated with FreeStyle293 medium for 4 hr and treated for 16 hr with indicated concentrations of RUCILP2 or irisin (Upper panel), with the addition at pretreatment with vehicle (phosphate-buffered saline) or 10 μM of integrin inhibitor cRGDyK for 10 min (Lower panel). Data are represented as mean±SEM, n=3 wells/group. Significant differences between two groups were evaluated using a two-tailed, unpaired Student's t test. Upper panel, *, p<0.05, **, p<0.01, #, p<0.05, ##, p<0.01, when compared with the blank group. Lower panel, *, p<0.05, when compared with the vehicle group.
MLO-Y4 cells were donated by Prof Moustapha Kassem from the University of Southern Denmark. The cells were seeded on type I collagen-coated 6-well plates under Minimum Essential Medium (α-MEM from Fisher Scientific, #15430584), supplemented with 2.5% Fetal Bovine Serum (FBS from Fisher Scientific, #11550356), 2.5% calf serum (Hyclone, SH30072.03), and 1% Penicillin-Streptomycin (Fisher Scientific, #11548876). Cell cultures were maintained in a humidified chamber with 5% CO2 at 37° C., and culture media were changed every 2-3 days.
At 60% confluence, medium was switched to FreeStyle293 Expression medium after washing with warm PBS. After 4 hours incubation, the cells were treated with recombinant RUCILP2 or commercial recombinant irisin (Sigma, #SRP8039-10UG and Phoenix pharmaceuticals, #067-29A) or saline for 24 h. For integrin inhibitor treatment, cells were treated with 10 μM of CycloRGDyK (Selleckchem, #S7844) for 10 minutes and washed with PBS before treated with recombinant RUCILP2 or commercial recombinant irisin or saline. After treatments, MLO-Y4 cells were harvested for qRT-PCR analysis of the mRNA level of sclerostin as described in gene expression analysis. […]

Molecule	gene markers for white adipocytes AdipoQ and Ppara in SWAT [1]	genes involved in gluconeogenesis G6pase and Pepck1 in liver [1]	thermogenic markers Ucp1, Prdm16, Dio2 in SWAT [1]	Adiponectin expression (mouse 3T3-L1 fibroblasts)	markers of adipocyte browning (Ucp1, Prdm16, Pgc1a, Dio2, Cox2) (mouse 3T3-L1 fibroblasts)	sclerostin expression levels [2]	sclerostin expression ([2]; MLO-Y4 cells, treated 16 hr)
B1	diminishes expression	lowered expression	comparable effects	down-regulating	up-regulate	increase	stimulates sclerostin expression
B2	did not find significant reduction	no effect	comparable effects	down-regulating	up-regulate	increase	–
